Legend:
[1] = target: T1, FLAG tagged B3GNT2 (N- or C-terminal FLAG tag) (human, UniProt Q9NY97 1-397); assay: co-IP of FLAG tagged B3GNT2 from A375 lysate, Western blot
T1 construct: The text speaks of the co-IP of B3GNT2 without separating the N-FLAG and C-FLAG constructs, so both are held as one molecule; also called N-FLAG B3GNT2; C-FLAG B3GNT2; not shown: FLAG tag at the N- or the C-terminus
T1 sequence (looked up): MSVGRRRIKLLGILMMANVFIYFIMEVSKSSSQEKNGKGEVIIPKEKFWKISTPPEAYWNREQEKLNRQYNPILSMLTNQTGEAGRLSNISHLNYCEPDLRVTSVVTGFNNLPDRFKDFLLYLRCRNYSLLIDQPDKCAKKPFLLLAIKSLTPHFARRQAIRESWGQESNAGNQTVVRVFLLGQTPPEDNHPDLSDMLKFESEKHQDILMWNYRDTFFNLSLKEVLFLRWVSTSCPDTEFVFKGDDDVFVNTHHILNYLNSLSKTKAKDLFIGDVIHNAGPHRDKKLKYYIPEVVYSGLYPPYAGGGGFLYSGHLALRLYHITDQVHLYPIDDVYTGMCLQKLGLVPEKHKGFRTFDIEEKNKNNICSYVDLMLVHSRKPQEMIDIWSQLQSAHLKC
Experimental: (§1) Cells were plated in 10-cm cell culture dishes and grown to 60-80% confluency. For each condition, two biological replicates were harvested for co-IP. Cells were washed with PBS and 4 mL of lysis buffer (20 mM HEPES, 1% Triton X-100, 150 mM NaCl, 1 mM EDTA, and 10% glycerol) containing protease inhibitor cocktail was added. Cells were scraped and lysate was incubated at 4° C. under rotary agitation for 1 h. Lysate was centrifuged at 14,000×g for 10 min at 4° C. Supernatant was transferred to a new tube and an aliquot was taken as the input. […] For Western blots, 10 μg/mL Chicken Anti-FLAG (Aves labs ET-DY100) and IgY control (R&D Systems AB-101-C) antibodies were biotinylated (Thermo Fisher Scientific 90407) and added to the respective conditions. Lysates with antibodies were incubated at 4° C. under rotary agitation overnight. For each mL of lysate, 50 μL of Pierce Protein A/G Magnetic Beads (Mass spectrometry; Thermo Fisher Scientific 88803) or Pierce Streptavidin Magnetic Beads (Western blot; Thermo Fisher Scientific 88817) was washed twice with lysis buffer. Lysates with antibodies were added to the beads and incubated at 4° C. under rotary agitation for 4 h. Beads were washed with lysis buffer 3 times and resuspended in lysis buffer for storage.

CPSF6 = target: T2, CPSF6 (human, UniProt Q16630-2 1-588, limits assumed); assay: co-IP with mouse anti-FLAG from lysate of cells overexpressing C-FLAG B3GNT2, then mass spectrometry
T2 construct: Identified by mass spectrometry in the co-IP; also called NP_001287876.1 (+3)
T2 sequence (looked up): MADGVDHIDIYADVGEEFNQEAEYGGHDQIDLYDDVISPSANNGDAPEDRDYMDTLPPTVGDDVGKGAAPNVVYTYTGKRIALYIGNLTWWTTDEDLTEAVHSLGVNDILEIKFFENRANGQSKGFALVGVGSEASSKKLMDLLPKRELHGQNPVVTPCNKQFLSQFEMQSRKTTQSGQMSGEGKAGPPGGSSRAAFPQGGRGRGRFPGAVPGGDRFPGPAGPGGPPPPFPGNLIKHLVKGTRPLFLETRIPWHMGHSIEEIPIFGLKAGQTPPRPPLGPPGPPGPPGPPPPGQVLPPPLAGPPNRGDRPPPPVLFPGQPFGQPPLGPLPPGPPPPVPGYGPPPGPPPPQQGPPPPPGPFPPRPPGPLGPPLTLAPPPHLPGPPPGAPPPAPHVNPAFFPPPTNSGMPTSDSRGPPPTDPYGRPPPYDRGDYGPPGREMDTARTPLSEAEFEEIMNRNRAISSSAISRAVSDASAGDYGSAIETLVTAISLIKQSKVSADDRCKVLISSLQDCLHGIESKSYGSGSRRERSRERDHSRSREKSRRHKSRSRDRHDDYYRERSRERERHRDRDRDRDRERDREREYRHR
Experimental: as §1
(§2) Magnetic beads were resuspended in 100 mM Tris pH 7.8, reduced, alkylated and digested with trypsin at 37° ° C. overnight. This solution was subjected to solid phase extraction to concentrate the peptides and remove unwanted reagents followed by injection onto a Shimadzu HPLC with fraction collector. Eight fractions were collected and after concentration were injected on a Waters NanoAcquity HPLC equipped with a self-packed Aeris 3 μm C18 analytical column 0.075 mm by 20 cm, (Phenomenex). Peptides were eluted using standard reverse-phase gradients. The effluent from the column was analyzed using a Thermo Orbitrap Elite mass spectrometer (nanospray configuration) operated in a data dependent manner for 54 minutes. The resulting fragmentation spectra were correlated against the known database using Proteome Discover 1.4 (Thermo Fisher Scientific).

ANXA2 = target: T3, ANXA2 (human, UniProt P07355-2 1-357, limits assumed); assay: as above
T3 construct: Identified by mass spectrometry in the co-IP; also called NP_001002858.1 (+1)
Experimental: as §1, §2

PABPC1 = target: T4, PABPC1 (human, UniProt P11940 1-636); assay: as above
T4 construct: Identified by mass spectrometry in the co-IP; also called NP_002559.2
Experimental: as §1, §2

KHDRBS1 = target: T5, KHDRBS1 (human, UniProt Q07666 1-443); assay: as above
T5 construct: Identified by mass spectrometry in the co-IP; also called NP_006550.1
Experimental: as §1, §2

VIM = target: T6, VIM (human, UniProt P08670 2-466); assay: as above
T6 construct: Identified by mass spectrometry in the co-IP; also called NP_003371.2
Experimental: as §1, §2

CASC3 = target: T7, CASC3 (human, UniProt O15234 1-703); assay: as above
T7 construct: Identified by mass spectrometry in the co-IP; also called NP_031385.2
Experimental: as §1, §2

CAPRIN1 = target: T8, CAPRIN1 (human, UniProt Q14444 2-709); assay: as above
T8 construct: Identified by mass spectrometry in the co-IP; also called NP_005889.3 (+1)
T8 sequence (looked up): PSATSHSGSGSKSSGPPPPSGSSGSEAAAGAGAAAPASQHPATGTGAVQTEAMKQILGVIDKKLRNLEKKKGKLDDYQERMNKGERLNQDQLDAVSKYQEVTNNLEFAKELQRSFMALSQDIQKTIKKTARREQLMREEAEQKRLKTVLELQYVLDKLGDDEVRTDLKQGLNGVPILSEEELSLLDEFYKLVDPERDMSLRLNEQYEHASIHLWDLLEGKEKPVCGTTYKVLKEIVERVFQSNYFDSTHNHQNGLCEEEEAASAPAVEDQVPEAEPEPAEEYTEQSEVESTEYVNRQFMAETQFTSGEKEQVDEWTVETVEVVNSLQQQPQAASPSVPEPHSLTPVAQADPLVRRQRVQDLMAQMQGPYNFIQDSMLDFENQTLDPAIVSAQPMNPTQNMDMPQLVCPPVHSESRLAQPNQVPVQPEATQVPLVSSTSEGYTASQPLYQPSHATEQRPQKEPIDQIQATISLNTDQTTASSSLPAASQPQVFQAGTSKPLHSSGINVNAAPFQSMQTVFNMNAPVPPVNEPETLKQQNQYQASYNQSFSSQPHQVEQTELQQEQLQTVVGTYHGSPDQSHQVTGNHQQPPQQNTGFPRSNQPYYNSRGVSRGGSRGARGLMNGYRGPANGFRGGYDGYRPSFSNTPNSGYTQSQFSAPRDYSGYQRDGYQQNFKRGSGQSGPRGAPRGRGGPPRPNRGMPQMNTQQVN
Experimental: as §1, §2

T6 sequence (P08670 2-466 limits assumed): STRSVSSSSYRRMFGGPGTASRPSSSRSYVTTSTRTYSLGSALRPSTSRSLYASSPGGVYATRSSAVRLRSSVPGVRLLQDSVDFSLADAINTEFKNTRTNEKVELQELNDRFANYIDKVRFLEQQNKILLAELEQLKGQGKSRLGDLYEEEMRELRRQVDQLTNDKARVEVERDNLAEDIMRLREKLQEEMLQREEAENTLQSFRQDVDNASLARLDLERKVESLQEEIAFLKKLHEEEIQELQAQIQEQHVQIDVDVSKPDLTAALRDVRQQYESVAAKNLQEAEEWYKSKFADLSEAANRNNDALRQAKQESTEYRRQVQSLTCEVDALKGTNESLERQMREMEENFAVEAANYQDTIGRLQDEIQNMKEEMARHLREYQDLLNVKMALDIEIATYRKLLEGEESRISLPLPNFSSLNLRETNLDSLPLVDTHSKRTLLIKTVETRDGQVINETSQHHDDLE
T5 sequence (Q07666 whole entry): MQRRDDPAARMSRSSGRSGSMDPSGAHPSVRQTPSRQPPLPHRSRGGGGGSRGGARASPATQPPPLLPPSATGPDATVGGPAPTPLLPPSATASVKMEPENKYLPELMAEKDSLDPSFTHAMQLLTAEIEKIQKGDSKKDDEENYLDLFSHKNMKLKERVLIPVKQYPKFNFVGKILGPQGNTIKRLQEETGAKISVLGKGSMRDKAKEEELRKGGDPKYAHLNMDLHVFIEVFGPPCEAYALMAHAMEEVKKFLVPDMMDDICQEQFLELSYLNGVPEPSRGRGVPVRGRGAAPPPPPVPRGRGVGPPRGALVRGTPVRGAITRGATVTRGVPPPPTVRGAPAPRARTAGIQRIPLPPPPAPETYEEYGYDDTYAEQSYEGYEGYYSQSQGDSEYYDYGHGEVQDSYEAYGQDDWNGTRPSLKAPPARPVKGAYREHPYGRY
T4 sequence (P11940 whole entry): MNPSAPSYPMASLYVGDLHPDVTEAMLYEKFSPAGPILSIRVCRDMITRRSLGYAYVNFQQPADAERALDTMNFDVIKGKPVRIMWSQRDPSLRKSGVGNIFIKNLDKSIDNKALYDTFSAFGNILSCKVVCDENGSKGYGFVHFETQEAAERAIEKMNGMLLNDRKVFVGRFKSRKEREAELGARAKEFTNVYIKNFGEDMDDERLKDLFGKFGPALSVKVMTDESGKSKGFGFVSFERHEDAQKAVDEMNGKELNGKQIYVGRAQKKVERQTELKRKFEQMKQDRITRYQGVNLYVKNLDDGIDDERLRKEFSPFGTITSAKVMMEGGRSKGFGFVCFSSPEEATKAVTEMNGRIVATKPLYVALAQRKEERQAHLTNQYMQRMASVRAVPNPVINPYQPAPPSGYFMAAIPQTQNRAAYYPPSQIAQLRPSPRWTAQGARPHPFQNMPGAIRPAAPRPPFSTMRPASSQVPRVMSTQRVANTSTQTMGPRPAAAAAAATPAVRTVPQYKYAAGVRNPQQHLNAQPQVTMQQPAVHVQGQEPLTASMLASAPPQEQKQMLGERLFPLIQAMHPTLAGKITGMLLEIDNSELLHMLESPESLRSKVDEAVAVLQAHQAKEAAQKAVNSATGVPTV
T7 sequence (O15234 whole entry): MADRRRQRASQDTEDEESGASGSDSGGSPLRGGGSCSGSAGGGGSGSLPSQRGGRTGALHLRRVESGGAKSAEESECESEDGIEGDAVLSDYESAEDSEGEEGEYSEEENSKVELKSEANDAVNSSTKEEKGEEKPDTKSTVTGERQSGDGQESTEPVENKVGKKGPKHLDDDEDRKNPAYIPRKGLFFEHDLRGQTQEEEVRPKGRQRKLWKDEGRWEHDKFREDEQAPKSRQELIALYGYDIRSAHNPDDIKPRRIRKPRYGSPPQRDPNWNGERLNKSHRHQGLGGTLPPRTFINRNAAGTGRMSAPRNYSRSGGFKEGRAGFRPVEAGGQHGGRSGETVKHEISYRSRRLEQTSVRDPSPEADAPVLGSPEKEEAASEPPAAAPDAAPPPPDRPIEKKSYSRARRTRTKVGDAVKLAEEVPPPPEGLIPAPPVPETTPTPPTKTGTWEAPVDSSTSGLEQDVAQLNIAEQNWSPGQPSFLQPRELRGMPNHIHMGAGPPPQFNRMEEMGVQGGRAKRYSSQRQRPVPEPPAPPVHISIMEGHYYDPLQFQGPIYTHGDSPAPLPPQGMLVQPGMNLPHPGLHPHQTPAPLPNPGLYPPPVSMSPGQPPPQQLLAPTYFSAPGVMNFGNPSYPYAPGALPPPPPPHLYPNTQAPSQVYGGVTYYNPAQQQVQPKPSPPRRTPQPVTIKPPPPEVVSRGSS
T3 sequence (P07355 other isoform, or with tags, fused parts or gaps limits assumed): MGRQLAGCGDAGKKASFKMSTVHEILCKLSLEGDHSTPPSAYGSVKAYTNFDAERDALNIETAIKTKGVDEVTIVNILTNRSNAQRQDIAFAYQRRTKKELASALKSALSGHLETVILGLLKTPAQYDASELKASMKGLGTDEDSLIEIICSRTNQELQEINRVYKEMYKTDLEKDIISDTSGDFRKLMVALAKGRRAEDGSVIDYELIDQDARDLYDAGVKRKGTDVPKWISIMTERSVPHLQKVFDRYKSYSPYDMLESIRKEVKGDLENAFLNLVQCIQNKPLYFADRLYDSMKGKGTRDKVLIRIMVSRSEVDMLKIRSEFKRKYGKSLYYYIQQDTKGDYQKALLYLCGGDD

B1: MICB, endogenous in A375 melanoma cells (ligand, human, UniProt Q29980 23-383, looked up)
chain: AEPHSLRYNLMVLSQDGSVQSGFLAEGHLDGQPFLRYDRQKRRAKPQGQWAENVLGAKTWDTETEDLTENGQDLRRTLTHIKDQKGGLHSLQEIRVCEIHEDSSTRGSRHFYYDGELFLSQNLETQESTVPQSSRAQTLAMNVTNFWKEDAMKTKTHYRAMQADCLQKLQRYLKSGVAIRRTVPPMVNVTCSEVSEGNITVTCRASSFYPRNITLTWRQDGVSLSHNTQQWGDVLPDGNGTYQTWVATRIRQGEEQRFTCYMEHSGNHGTHPVPSGKALVLQSQRTDFPYVSAAMPCFVIIIILCVPCCKKKTSAAEGPELVSLQVLDQHPVGTGDHRDAAQLGFQPLMSATGSTGSTEGT
modifications: poly-LacNAc glycosylation added by B3GNT2 (sites not given)
notes: whole, on cells; On fixed A375 cells in flow cytometry; In the co-IP it comes from the lysate of these cells
binding result [1]: binds

B2: C-terminal FLAG tagged B3GNT2 (enzyme, human, UniProt Q9NY97 1-397, looked up)
chain: MSVGRRRIKLLGILMMANVFIYFIMEVSKSSSQEKNGKGEVIIPKEKFWKISTPPEAYWNREQEKLNRQYNPILSMLTNQTGEAGRLSNISHLNYCEPDLRVTSVVTGFNNLPDRFKDFLLYLRCRNYSLLIDQPDKCAKKPFLLLAIKSLTPHFARRQAIRESWGQESNAGNQTVVRVFLLGQTPPEDNHPDLSDMLKFESEKHQDILMWNYRDTFFNLSLKEVLFLRWVSTSCPDTEFVFKGDDDVFVNTHHILNYLNSLSKTKAKDLFIGDVIHNAGPHRDKKLKYYIPEVVYSGLYPPYAGGGGFLYSGHLALRLYHITDQVHLYPIDDVYTGMCLQKLGLVPEKHKGFRTFDIEEKNKNNICSYVDLMLVHSRKPQEMIDIWSQLQSAHLKC
notes: FLAG-tagged ORF overexpressed in A375 cells; bait of the co-IP with mouse anti-FLAG; also called C-FLAG B3GNT2; C-term flag; not shown: C-terminal FLAG tag
co-IP mass spectrometry count (C-term flag) (CPSF6): 35 | co-IP mass spectrometry count (C-term flag) (ANXA2): 15 | co-IP mass spectrometry count (C-term flag) (PABPC1): 41 | co-IP mass spectrometry count (C-term flag) (KHDRBS1): 9 | co-IP mass spectrometry count (C-term flag) (VIM): 411 | co-IP mass spectrometry count (C-term flag) (CASC3): 0 | co-IP mass spectrometry count (C-term flag) (CAPRIN1): 6

B3: CD70, endogenous in A375 melanoma cells (ligand, human, UniProt P32970 1-193, looked up)
chain: MPEEGSGCSVRRRPYGCVLRAALVPLVAGLVICLVVCIQRFAQAQQQLPLESLGWDVAELQLNHTGPQQDPRLYWQGGPALGRSFLHGPELDKGQLRIHRDGIYMVHIQVTLAICSSTTASRHHPTTLAVGICSPASRSISLLRLSFHQGCTIASQRLTPLARGDTLCTNLTGTLLPSRNTDETFFGVQWVRP
modifications: poly-LacNAc glycosylation added by B3GNT2 (sites not given)
notes: whole, on cells; In the co-IP it comes from the lysate of A375 cells
binding result [1]: binds

B4: CD58, endogenous in A375 melanoma cells (ligand, human, UniProt P19256 29-250, looked up)
chain: FSQQIYGVVYGNVTFHVPSNVPLKEVLWKKQKDKVAELENSEFRAFSSFKNRVYLDTVSGSLTIYNLTSSDEDEYEMESPNITDTMKFFLYVLESLPSPTLTCALTNGSIEVQCMIPEHYNSHRGLIMYSWDCPMEQCKRNSTSIYFKMENDLPQKIQCTLSNPLFNTTSSIILTTCIPSSGHSRHRYALIPIPLAVITTCIVLYMNGILKCDRKPDRTNSN
modifications: poly-LacNAc glycosylation added by B3GNT2 (sites not given)
notes: as for B1
binding result [1]: binds

B5: IFNGR2, endogenous in A375 melanoma cells (receptor, human, UniProt P38484 22-337, looked up)
chain: APPDPLSQLPAPQHPKIRLYNAEQVLSWEPVALSNSTRPVVYQVQFKYTDSKWFTADIMSIGVNCTQITATECDFTAASPSAGFPMDFNVTLRLRAELGALHSAWVTMPWFQHYRNVTVGPPENIEVTPGEGSLIIRFSSPFDIADTSTAFFCYYVHYWEKGGIQQVKGPFRSNSISLDNLKPSRVYCLQVQAQLLWNKSNIFRVGHLSNISCYETMADASTELQQVILISVGTFSLLSVLAGACFFLVLKYRGLIKYWFHTPPSIPLQIEEYLKDPTQPILEALDKDSSPKDDVWDSVSIISFPEKEQEDVLQTL
modifications: poly-LacNAc glycosylation added by B3GNT2 (sites not given)
notes: as for B3
binding result [1]: binds

B6: FAS, endogenous in A375 melanoma cells (receptor, human, UniProt P25445 26-335, looked up)
chain: QVTDINSKGLELRKTVTTVETQNLEGLHHDGQFCHKPCPPGERKARDCTVNGDEPDCVPCQEGKEYTDKAHFSSKCRRCRLCDEGHGLEVEINCTRTQNTKCRCKPNFFCNSTVCEHCDPCTKCEHGIIKECTLTSNTKCKEEGSRSNLGWLCLLLLPIPLIVWVKRKEVQKTCRKHRKENQGSHESPTLNPETVAINLSDVDLSKYITTIAGVMTLSQVKGFVRKNGVNEAKIDEIKNDNVQDTAEQKVQLLRNWHQLHGKKEAYDTLIKDLKKANLCTLAEKIQTIILKDITSDSENSNFRNEIQSLV
modifications: poly-LacNAc glycosylation added by B3GNT2 (sites not given)
notes: whole, on cells; In the co-IP it comes from the lysate of A375 cells; also called Fas receptor
binding result [1]: binds

— patent publication US20240261333A1 (published 2024)
